Source: paper PMC6868236

Target: Tra1 (S. pombe) (UniProt Q9HFE8)
Test: Spt7-TAP tandem affinity purification of SAGA, LC-MS/MS label-free quantification (LFQ)
Conditions: parent: 1.0

Sequence of UniProt Q9HFE8 (Q9HFE8 whole entry): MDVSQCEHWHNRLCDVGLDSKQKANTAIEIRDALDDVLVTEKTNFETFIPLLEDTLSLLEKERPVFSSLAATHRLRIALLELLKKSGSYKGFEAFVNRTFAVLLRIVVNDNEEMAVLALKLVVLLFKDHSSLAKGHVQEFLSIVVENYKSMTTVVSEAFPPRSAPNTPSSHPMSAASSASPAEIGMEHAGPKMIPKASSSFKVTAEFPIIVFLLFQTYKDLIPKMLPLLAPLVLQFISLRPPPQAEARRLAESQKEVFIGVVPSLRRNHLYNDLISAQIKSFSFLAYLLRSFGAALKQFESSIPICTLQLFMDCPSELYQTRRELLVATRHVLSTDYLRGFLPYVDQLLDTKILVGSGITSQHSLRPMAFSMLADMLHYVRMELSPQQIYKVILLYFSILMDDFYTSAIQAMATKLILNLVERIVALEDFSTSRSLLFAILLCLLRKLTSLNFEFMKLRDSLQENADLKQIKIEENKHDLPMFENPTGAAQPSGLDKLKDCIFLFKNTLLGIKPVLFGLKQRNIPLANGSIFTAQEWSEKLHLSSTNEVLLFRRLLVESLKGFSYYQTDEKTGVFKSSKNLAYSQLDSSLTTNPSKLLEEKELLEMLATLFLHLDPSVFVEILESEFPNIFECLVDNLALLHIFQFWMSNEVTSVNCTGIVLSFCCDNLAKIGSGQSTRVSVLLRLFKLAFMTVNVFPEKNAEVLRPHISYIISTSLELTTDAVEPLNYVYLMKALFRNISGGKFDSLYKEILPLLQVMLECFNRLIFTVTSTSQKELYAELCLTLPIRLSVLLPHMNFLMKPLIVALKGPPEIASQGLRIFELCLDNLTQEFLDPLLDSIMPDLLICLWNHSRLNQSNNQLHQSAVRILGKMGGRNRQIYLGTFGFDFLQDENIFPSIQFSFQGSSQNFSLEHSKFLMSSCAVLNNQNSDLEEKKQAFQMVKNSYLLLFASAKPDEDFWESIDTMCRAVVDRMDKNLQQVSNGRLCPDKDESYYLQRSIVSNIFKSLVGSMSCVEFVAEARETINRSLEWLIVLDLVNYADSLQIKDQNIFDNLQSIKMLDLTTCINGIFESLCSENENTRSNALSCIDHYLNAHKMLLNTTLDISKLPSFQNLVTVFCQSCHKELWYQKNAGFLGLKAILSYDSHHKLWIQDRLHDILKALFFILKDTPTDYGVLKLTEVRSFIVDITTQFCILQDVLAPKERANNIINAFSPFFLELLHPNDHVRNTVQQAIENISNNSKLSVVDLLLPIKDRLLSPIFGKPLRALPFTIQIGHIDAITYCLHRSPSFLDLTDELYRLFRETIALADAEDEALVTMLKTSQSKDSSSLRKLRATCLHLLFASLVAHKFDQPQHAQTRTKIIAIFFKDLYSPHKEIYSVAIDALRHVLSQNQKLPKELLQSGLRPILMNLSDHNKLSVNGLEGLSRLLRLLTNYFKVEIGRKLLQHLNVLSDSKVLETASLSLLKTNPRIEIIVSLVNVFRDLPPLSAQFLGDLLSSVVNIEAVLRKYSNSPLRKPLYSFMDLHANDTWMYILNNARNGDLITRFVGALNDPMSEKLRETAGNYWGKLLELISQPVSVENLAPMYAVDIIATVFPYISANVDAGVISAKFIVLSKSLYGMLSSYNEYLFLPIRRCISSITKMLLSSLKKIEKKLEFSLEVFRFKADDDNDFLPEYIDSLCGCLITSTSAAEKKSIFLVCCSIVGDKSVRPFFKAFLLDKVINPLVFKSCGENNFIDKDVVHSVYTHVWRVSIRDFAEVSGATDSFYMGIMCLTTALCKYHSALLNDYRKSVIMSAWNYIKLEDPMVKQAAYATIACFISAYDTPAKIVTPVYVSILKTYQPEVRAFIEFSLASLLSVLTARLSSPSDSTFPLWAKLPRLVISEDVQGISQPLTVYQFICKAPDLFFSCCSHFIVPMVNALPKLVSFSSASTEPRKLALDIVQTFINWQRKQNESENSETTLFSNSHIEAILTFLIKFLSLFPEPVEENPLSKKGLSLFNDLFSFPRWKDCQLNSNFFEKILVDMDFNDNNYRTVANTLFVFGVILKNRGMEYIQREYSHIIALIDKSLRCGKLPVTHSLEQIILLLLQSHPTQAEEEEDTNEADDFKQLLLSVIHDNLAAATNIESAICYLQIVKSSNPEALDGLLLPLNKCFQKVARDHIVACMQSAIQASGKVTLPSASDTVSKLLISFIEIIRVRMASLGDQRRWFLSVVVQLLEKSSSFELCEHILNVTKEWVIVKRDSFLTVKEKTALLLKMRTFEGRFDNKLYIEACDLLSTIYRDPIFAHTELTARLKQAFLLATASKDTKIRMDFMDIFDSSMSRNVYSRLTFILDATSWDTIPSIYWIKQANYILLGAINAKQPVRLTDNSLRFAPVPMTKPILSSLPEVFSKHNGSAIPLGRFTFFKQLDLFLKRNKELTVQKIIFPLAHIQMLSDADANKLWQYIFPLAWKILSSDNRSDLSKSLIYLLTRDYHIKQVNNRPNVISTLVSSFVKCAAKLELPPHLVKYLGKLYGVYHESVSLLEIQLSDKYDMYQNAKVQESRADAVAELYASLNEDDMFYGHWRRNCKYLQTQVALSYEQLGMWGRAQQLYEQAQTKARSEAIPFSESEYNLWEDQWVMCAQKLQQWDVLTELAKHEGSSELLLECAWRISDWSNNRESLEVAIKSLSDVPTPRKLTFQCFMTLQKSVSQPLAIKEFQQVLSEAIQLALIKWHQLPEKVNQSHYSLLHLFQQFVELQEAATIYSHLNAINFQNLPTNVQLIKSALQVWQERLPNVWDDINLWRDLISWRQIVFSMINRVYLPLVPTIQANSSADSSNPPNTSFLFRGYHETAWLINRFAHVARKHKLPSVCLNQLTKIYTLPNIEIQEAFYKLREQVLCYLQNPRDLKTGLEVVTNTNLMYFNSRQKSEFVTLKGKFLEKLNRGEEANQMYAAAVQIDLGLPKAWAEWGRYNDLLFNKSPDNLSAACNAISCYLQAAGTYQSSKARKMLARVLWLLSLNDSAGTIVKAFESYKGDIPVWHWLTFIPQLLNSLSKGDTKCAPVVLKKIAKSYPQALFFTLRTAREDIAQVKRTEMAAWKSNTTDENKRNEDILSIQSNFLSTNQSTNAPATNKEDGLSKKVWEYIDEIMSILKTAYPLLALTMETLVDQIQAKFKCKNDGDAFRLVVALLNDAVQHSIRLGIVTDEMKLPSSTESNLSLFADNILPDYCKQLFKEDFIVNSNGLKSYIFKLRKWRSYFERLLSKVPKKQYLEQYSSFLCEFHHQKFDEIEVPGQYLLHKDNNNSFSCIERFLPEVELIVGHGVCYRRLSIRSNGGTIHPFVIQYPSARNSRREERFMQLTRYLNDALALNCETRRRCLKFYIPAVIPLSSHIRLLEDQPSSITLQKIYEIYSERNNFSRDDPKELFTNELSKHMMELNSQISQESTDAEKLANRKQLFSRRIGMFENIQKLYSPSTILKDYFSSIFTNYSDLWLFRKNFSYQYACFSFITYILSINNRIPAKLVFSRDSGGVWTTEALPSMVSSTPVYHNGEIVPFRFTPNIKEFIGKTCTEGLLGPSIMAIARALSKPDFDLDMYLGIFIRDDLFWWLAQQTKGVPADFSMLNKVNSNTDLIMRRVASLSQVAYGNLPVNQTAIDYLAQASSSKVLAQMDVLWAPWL

Row | ratio to parent | Substance
1 | 0.51 | Spt20 (S. pombe) (from UniProt O14174) RRKR>AAAA (HIT sequence … changed to …)
2 | 0.02 | Spt20 (S. pombe) (from UniProt O14174) FIEN>AAAA (HIT sequence … changed to …)
